Among the data in patent US20250066503A1, “CELL INJURY INDUCING THERAPEUTIC DRUG FOR USE IN CANCER THERAPY” (CHUGAI SEIYAKU KABUSHIKI KAISHA, priority 2016, published 2025) are Kd values, retold here.

Changes are numbered by the printed parent chain.

The target of the assay is T1, human GPC3 (human, UniProt P51654 25-563).
T1 construct: range 25-563; soluble analyte; also called soluble human GPC3; glypican 3
The assay is described as follows: SPR.

T1 sequence (P51654 25-563 limits assumed): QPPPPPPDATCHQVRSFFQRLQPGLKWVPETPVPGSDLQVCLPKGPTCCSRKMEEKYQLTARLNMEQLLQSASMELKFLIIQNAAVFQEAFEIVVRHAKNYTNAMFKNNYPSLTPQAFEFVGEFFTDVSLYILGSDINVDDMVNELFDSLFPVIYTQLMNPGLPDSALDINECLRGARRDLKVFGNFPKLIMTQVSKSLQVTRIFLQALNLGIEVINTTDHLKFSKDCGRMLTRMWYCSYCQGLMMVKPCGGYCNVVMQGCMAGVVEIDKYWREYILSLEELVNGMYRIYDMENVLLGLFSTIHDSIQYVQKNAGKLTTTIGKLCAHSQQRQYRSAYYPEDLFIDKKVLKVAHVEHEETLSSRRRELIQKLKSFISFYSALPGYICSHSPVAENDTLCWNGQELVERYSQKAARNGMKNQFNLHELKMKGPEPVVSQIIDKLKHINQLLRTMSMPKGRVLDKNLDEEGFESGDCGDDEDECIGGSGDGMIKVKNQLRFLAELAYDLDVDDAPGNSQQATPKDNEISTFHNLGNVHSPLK

B1: H0610-G1dh/none-Hi-Kn010G3/L0248-k0 (antibody, V domains shown)
VH: QVQLVQSGAEVKKPGASVKVSCKASGYTFTDYEMHWIRQPPGQGLEWIGAIDGKTPDTAYSQKFKGRVTLTADKSTSTAYMELSSLTSEDTAVYYCTRFYSYTYWGQGTLVTVSS
VL: DIVMTQSPLSLPVTPGEPASISCRPSQSPVHSNRNTYIQWYQQKPGQAPRLLIYKVSNRFSGVPDRFSGSGSGTDFTLKISRVEAEDVGVYYCYQGTQVPYTFGQGTKLEIK
notes: one-arm
With B1, the affinity, expressed as Kd, was 0.0555 nM.

B2: GCH025-G1dh/none-Hi-Kn010G3/L0000-k0 (antibody, V domains shown)
VH: B1 VH with K19T, Q43E, K54E
VL: DIVMTQSPLSLPVTPGEPASISCRSSQSLVHSNRNTYLHWYQQKPGQAPRLLIYKVSNRFSGVPDRFSGSGSGTDFTLKISRVEAEDVGVYYCGQGTQVPYTFGQGTKLEIKR
notes: one-arm
Molecule B2 displayed a Kd of 5.05 nM.

B3: GCH005-G1dh/none-Hi-Kn010G3/L0000-k0 (antibody, V domains shown)
VH: B1 VH with Y60E
VL: B2 VL
notes: one-arm
Take B3: the Kd was 5.32 nM.

B4: GCH019-G1dh/none-Hi-Kn010G3/L0000-k0 (antibody, V domains shown)
VH: B1 VH with K19T, Q43E, S61E
VL: B2 VL
notes: one-arm
B4: the Kd came to 4.36 nM.

B5: H0610-G1dh/none-Hi-Kn010G3/TR01L011-k0 (antibody, V domains shown)
VH: B1 VH
VL: B1 VL with R24Q, P25A, Q27E, P29L, I38L, Q39H, S61R, Y94G, L109V, K112E
notes: one-arm
B5: the Kd is 4.02 nM.

B6: H0610-G1dh/none-Hi-Kn010G3/TR01L005-k0 (antibody, V domains shown)
VH: B1 VH
VL: B1 VL with P25S, P29L, I38L, Q39H, Q42L, A48S, R50Q, Y94G, L109V, K112E
notes: one-arm
B6 registered a Kd of 5.37 nM.

B7: H0610-G1dh/none-Hi-Kn010G3/L0264-k0 (antibody, V domains shown)
VH: B1 VH
VL: B1 VL with I38L, Q39H, Y94A
notes: one-arm
B7: the Kd is 0.219 nM.

B8: H0610-G1dh/none-Hi-Kn010G3/L0269-k0 (antibody, V domains shown)
VH: B1 VH
VL: B1 VL with P25S, Y94G
notes: one-arm
Regarding B8, the Kd was determined as 0.459 nM.

B9: GCH013-G1dh/none-Hi-Kn010G3/L0000-k0 (antibody, V domains shown)
VH: B1 VH with K19T, S61E
VL: B2 VL
notes: one-arm
Molecule B9 showed a Kd of 4.44 nM.

B10: GCH015-G1dh/none-Hi-Kn010G3/L0000-k0 (antibody, V domains shown)
VH: B1 VH with S61E, Q62E, K63S
VL: B2 VL
notes: one-arm
With B10, binding was put at a Kd of 4.14 nM.

B11: GCH026-G1dh/none-Hi-Kn010G3/L0000-k0 (antibody, V domains shown)
VH: B1 VH with K54E, Q62E, K63S
VL: B2 VL
notes: one-arm
For B11, the affinity, expressed as Kd, was 5.17 nM.

B12: H0610-G1dh/none-Hi-Kn010G3/TR01L018-k0 (antibody, V domains shown)
VH: B1 VH
VL: B1 VL with R24Q, P25A, Q27E, I38L, Q39H, Q42L, A48S, R50Q, Y94G
notes: one-arm
B12 came in with a Kd of 2.17 nM.

B13: GCH008-G1dh/none-Hi-Kn010G3/L0000-k0 (antibody, V domains shown)
VH: B1 VH with K54E
VL: B2 VL
notes: one-arm
The molecule B13 gave a Kd of 5.55 nM.

B14: H0610-G1dh/none-Hi-Kn010G3/L0268-k0 (antibody, V domains shown)
VH: B1 VH
VL: B1 VL with P25S, Y94V
notes: one-arm
The molecule B14 registered a Kd of 0.0169 nM.

B15: H0610-G1dh/none-Hi-Kn010G3/TR01L019-k0 (antibody, V domains shown)
VH: B1 VH
VL: B1 VL with R24Q, P25A, Q27E, I38L, Q39H, Q42L, A48S, R50Q
notes: one-arm
The molecule B15 displayed a Kd of 1.15 nM.

B16: H0610-G1dh/none-Hi-Kn010G3/TR01L015-k0 (antibody, V domains shown)
VH: B1 VH
VL: B1 VL with P25S, I38L, Q39H, Q42L, A48S, R50Q, Y94G
notes: one-arm
In turn, B16 showed a Kd of 2.16 nM.

B17: GCH010-G1dh/none-Hi-Kn010G3/L0000-k0 (antibody, V domains shown)
VH: B1 VH with K54D, S61E
VL: B2 VL
notes: one-arm
B17 yielded a Kd of 4.12 nM.

B18: GCH012-G1dh/none-Hi-Kn010G3/L0000-k0 (antibody, V domains shown)
VH: B1 VH with Y60E, S61E
VL: B2 VL
notes: one-arm
As for B18, the Kd stood at 5.4 nM.

B19: H0610-G1dh/none-Hi-Kn010G3/TR01L016-k0 (antibody, V domains shown)
VH: B1 VH
VL: B1 VL with P25S, I38L, Q39H, Q42L, A48S, R50Q
notes: one-arm
B19: binding was put at a Kd of 1.08 nM.

B20: GCH023-G1dh/none-Hi-Kn010G3/L0000-k0 (antibody, V domains shown)
VH: B1 VH with Q43E, K54E
VL: B2 VL
notes: one-arm
The molecule B20 registered a dissociation constant Kd of 4.94 nM.

B21: H0610-G1dh/none-Hi-Kn010G3/L0261-k0 (antibody, V domains shown)
VH: B1 VH
VL: B1 VL with P25S, Y94T
notes: one-arm
Consider B21, for which the Kd came out at 0.0107 nM.

B22: H0610-G1dh/none-Hi-Kn010G3/L0266-k0 (antibody, V domains shown)
VH: B1 VH
VL: B1 VL with P25S, S28P, I38L, Q39H, Y94V
notes: one-arm
In turn, B22 registered an equilibrium dissociation constant (Kd) of 0.213 nM.

B23: H0610-G1dh/none-Hi-Kn010G3/TR01L017-k0 (antibody, V domains shown)
VH: B1 VH
VL: B1 VL with P25S, Q42L, A48S, R50Q
notes: one-arm
B23 came in with a Kd of 0.00827 nM.

B24: GCH025-G1dh/none-Hi-Kn010G3/L0204-k0 (antibody, V domains shown)
VH: B1 VH with K19T, Q43E, K54E
VL: B2 VL with L29P, S61R
notes: one-arm
In the case of B24, binding was put at a Kd of 0.67 nM.

B25: H0610-G1dh/none-Hi-Kn010G3/TR01L003-k0 (antibody, V domains shown)
VH: B1 VH
VL: B1 VL with P25S, P29L, I38L, Q39H, Y94G, L109V, K112E
notes: one-arm
For the molecule B25, binding was characterised by a dissociation constant (Kd) of 5.08 nM.

B26: H0610-G1dh/none-Hi-Kn010G3/L0267-k0 (antibody, V domains shown)
VH: B1 VH
VL: B1 VL with I38L, Q39H, Y94V
notes: one-arm
On to B26, for which the Kd came to 0.179 nM.

B27: H0610-G1dh/none-Hi-Kn010G3/TR01L020-k0 (antibody, V domains shown)
VH: B1 VH
VL: B1 VL with R24Q, P25A, Q27E, Q42L, A48S, R50Q
notes: one-arm
In the case of B27, the affinity, expressed as Kd, was 0.0224 nM.

B28: GCH007-G1dh/none-Hi-Kn010G3/L0000-k0 (antibody, V domains shown)
VH: B1 VH with Q62D
VL: B2 VL
notes: one-arm
Take B28: the Kd came to 4.93 nM.

B29: GCH027-G1dh/none-Hi-Kn010G3/L0000-k0 (antibody, V domains shown)
VH: B1 VH with T28E
VL: B2 VL
notes: one-arm
With B29, the Kd amounted to 3.83 nM.

B30: H0610-G1dh/none-Hi-Kn010G3/L0249-k0 (antibody, V domains shown)
VH: B1 VH
VL: B1 VL with Y94S
notes: one-arm
The molecule B30 gave a Kd of 0.00686 nM.

B31: H0610-G1dh/none-Hi-Kn010G3/TR01L009-k0 (antibody, V domains shown)
VH: B1 VH
VL: B1 VL with P25S, P29L, I38L, Q39H, Q42L, A48S, R50Q, S61R, Y94G
notes: one-arm
B31: the dissociation constant (Kd) was determined as 3.81 nM.

B32: GCH006-G1dh/none-Hi-Kn010G3/L0000-k0 (antibody, V domains shown)
VH: B1 VH with S61E
VL: B2 VL
notes: one-arm
With B32, the Kd was 4.06 nM.

B33: H0610-G1dh/none-Hi-Kn010G3/L0263-k0 (antibody, V domains shown)
VH: B1 VH
VL: B1 VL with P25S, Q39H, Y94A
notes: one-arm
On to B33, for which the Kd was 0.564 nM.

B34: GCH003-G1dh/none-Hi-Kn010G3/L0000-k0 (antibody, V domains shown)
VH: B1 VH with K54D
VL: B2 VL
notes: one-arm
Take B34: the Kd is 5.2 nM.

B35: H0610-G1dh/none-Hi-Kn010G3/L0265-k0 (antibody, V domains shown)
VH: B1 VH
VL: B1 VL with P25S, Y94A
notes: one-arm
Molecule B35 had a Kd of 0.0087 nM.

B36: GCH029-G1dh/none-Hi-Kn010G3/L0000-k0 (antibody, V domains shown)
VH: B1 VH with T30E
VL: B2 VL
notes: one-arm
With B36, the affinity, expressed as Kd, was 5.01 nM.

B37: H0610-G1dh/none-Hi-Kn010G3/TR01L010-k0 (antibody, V domains shown)
VH: B1 VH
VL: B1 VL with P25S, P29L, I38L, Q39H, S61R, Y94G, L109V, K112E
notes: one-arm
Molecule B37 displayed a Kd of 2.92 nM.

B38: H0610-G1dh/none-Hi-Kn010G3/L0258-k0 (antibody, V domains shown)
VH: B1 VH
VL: B1 VL with P25S, S28P, I38L, Q39H, Y94T
notes: one-arm
For B38, binding was put at a Kd of 0.000352 nM.

B39: H0610-G1dh/none-Hi-Kn010G3/L0259-k0 (antibody, V domains shown)
VH: B1 VH
VL: B1 VL with P25S, Q39H, Y94T
notes: one-arm
On to B39, for which the Kd stood at 0.334 nM.

B40: H0610-G1dh/none-Hi-Kn010G3/TR01L012-k0 (antibody, V domains shown)
VH: B1 VH
VL: DIVMTQSPLSLPVTPGEPASISCRSSQSLVHSNRNTYLHWYLQKPGQSPQLLIYKVSNRFRGVPDRFSGSGSGTDFTLKISRVEAEDVGVYYCGQGTQVPYTFGQGTKVEIE
notes: one-arm
The molecule B40 registered a Kd of 4.25 nM.

B41: GCH022-G1dh/none-Hi-Kn010G3/L0000-k0 (antibody, V domains shown)
VH: B1 VH with K19T, K54E
VL: B2 VL
notes: one-arm
As to B41, the affinity, expressed as Kd, was 4.92 nM.

B42: H0610-G1dh/none-Hi-Kn010G3/TR01L008-k0 (antibody, V domains shown)
VH: B1 VH
VL: B1 VL with R24Q, P25A, Q27E, P29L, I38L, Q39H, S61R, Y94G
notes: one-arm
The molecule B42 had a dissociation constant Kd of 3.48 nM.

B43: H0610-G1dh/none-Hi-Kn010G3/L0262-k0 (antibody, V domains shown)
VH: B1 VH
VL: B1 VL with P25S, S28P, I38L, Q39H, Y94A
notes: one-arm
Turning to B43, the Kd is 0.211 nM.

B44: GCH016-G1dh/none-Hi-Kn010G3/L0000-k0 (antibody, V domains shown)
VH: B1 VH with S61E, K65Q, G66D
VL: B2 VL
notes: one-arm
In the case of B44, binding was characterised by a dissociation constant (Kd) of 4.59 nM.

B45: GCH014-G1dh/none-Hi-Kn010G3/L0000-k0 (antibody, V domains shown)
VH: B1 VH with Q43E, S61E
VL: B2 VL
notes: one-arm
As to B45, the Kd is 4.2 nM.
